These results are taken from patent US20160311868A1.

For data set [1], the target named is TgMyoA heavy chain with C-terminal Bio-tag and FLAG-tag (TgMyoA-cBio-cFLAG) (Toxoplasma gondii) (UniProt O00934). As to the kind of experiment: cell-based or functional assay.

“TgMLC1, Toxoplasma gondii myosin light chain MLC1 (regulatory light chain), untagged” showed a speed of actin movement, in vitro motility assay (TgMyoA with TgMLC1 only) in data set [1] of 1.5 µm/s.
“TgMyoA expressed with both light chains (TgMyoA heavy chain with bound TgMLC1 and TgELC1)”: the “Km for actin, steady-state actin-activated ATPase” value with skeletal muscle actin is “a Km for actin of 136±22 µM at 30 °C”.
